Data: patent US7595158B2, “Bcl2L12 polypeptide activators and inhibitors” (Dana-Farber Cancer Institute, Inc., priority 2003, dated 2009)

Assays:
[1] = tested on: Ink4a-/-/Arf-/- astrocytes; assay: Growth of transduced Ink4a-/-/Arf-/- astrocytes under normal and low-serum conditions; format: cell-based, mouse
Description: The Bcl2L12-V5, R-RAS, and IRF3 nucleic acid sequences were cloned into expression vectors. Controls included expression vectors containing EGFR or Bcl2 nucleic acid sequences. The encoded polypeptides were expressed in primary astrocytes and tested for cell growth, transformation, and apoptosis activities. Primary astrocytes deficient for Ink4a/Arf (e.g., Ink4a^−/−/Arf^−/− astrocytes) were used given the prominence of this tumor suppressor lesion in advanced human gliomas. The following was performed to assess growth characteristics under normal growth conditions. Mouse Ink4a^−/−/Arf^−/− astrocytes were retro-virally transduced with pBabe vector alone; Bcl2L12-V5 nucleic acid; R-RAS nucleic acid; IRF3 nucleic acid; EGFR* nucleic acid; or Bcl2 nucleic acid. After retro-viral infection, transduced mouse Ink4a^−/−/Arf^−/− astrocytes were subjected to puromycin (2 μg/mL) selection for four days and plated at a density of 1×10^5 cells/10 cm dish using 10% FBS-DMEM medium. All transduced Ink4a^−/−/Arf^−/− astrocytes were counted each day for five days to determine cell numbers (mean±S.D.; three independent experiments with each being performed in triplicate).
The following was performed to assess growth characteristics under low-serum growth conditions. Retro-virally transduced mouse Ink4a^−/−/Arf^−/− astrocytes (1×10^6 cells/10 cm dish) were allowed to attach onto plates in 10% FBS-DMEM medium for five hours. After five hours, the medium was changed to 0.1% FBS-DMEM, and the cells were allowed to grow for three days. After three days in 0.1% FBS, the cells were counted to determine cell numbers (mean±S.D.; three independent experiments with each being performed in triplicate). The number of Ink4a^−/−/Arf^−/− astrocytes infected with pBabe-vector was set to 1.0.

[2] = tested on: Ink4a/Arf deficient astrocytes; assay: Colony formation of Ink4a/Arf deficient astrocytes after gamma-irradiation; format: cell-based, mouse; details: γ-irradiated 5 Gy, ten days, 1000 cells/10 cm dish; vector only about 17
Experimental: The ability of Bcl2L12 polypeptide to promote colony formation was assessed. Briefly, 1000 cells were seeded in a 10 cm dish and γ-irradiated (5 Gy). After culturing the irradiated cells for ten days, the cells were stained with crystal violet, and the number of colonies was counted. Bcl2L12-V5 polypeptide expression promoted colony formation in Ink4a/Arf deficient astrocytes upon γ-irradiation (about 27 colonies for cells expressing Bcl2L12-V5 polypeptides compared to about 17 colonies for control vector only cells; 1000 cells/10 cm dish).

caspases 3 and 7 = assay: Western blot of procaspase maturation in STS-treated Ink4a/Arf deficient astrocytes; format: cell-based, mouse; details: STS 1 μM, 0-16 hours
Experimental: In another experiment, Ink4a/Arf deficient astrocytic cell cultures ectopically expressing the Bcl2L12-V5 polypeptide or containing pBabe were treated with STS (1 μM) for 0, 2, 4, 8, or 16 hours. Cell lysates were analyzed by Western blotting using anti-caspase-9 antibodies (1:1000; Cell Signaling), anti-caspase-7 antibodies (0.5 μg/ml; BD Pharmingen), anti-caspase-3 antibodies (0.25 μg/ml; BD Transduction Laboratories), anti-cleaved caspase-9 antibodies (1:1000; Cell Signaling), anti-cleaved capase-7 antibodies (1:1000; Calbiochem), and anti-cleaved caspase-3 antibodies (1:1000; Calbiochem).

astrocytes [3] = assay: Plasma membrane integrity (SYTOX Green) and LEHDase activity in STS-treated astrocytes; format: cell-based; details: range of STS concentrations
Experimental: To assess and quantify plasma membrane integrity, vector or Bcl2L12-V5 transfected astrocytes were treated with or without STS (500 nM) for 24 hours and stained with a combination of Hoechst (a DNA intercalating dye that enters living as well as apoptotic or necrotic cells) and SYTOX Green (a green fluorescent dye that only enters cells with a disintegrated plasma membrane). FIG. 4B is a picture of STS treated and untreated cells transfected with either a control vector (pBabe) of a vector encoding a Bcl2L12-V5 polypeptide.
In addition, the green cells were counted over a range of different STS concentration (FIG. 4C; bars), and caspase-9 activity was determined by quantifying LEHDase activity in the corresponding cell lysates (FIG. 4C; histogram). […] SYTOX green positive cells were also quantified using a FACS based analysis assessing the increase in green fluorescence.

astrocytes [4] = assay: Mitochondrial membrane potential (JC-1, FACS) in STS-treated astrocytes; format: cell-based
Description: Like nuclear swelling and plasma membrane integration, a loss of the mitochondrial membrane potential is a hallmark of […]. To determine the dissipation of ΔΨM, STS treated astrocytes transfected with either vector only (pBabe) or a vector encoding a Bcl2L12-V5 polypeptide were stained with JC-1, and cells with an increase in fluorescence (FL-1) were quantified using FACS analysis. JC-1 (5,5′,6,6′-tetrachloro-1,1′,3,3′-tetraethylbenzimidazolylcarbocyanine iodide) is a green-fluorescent probe that exists as a monomer at low concentrations or at low membrane potential. […] Thus, the emission of this cyanine dye can be used as a sensitive measure of mitochondrial membrane potential.

BJAB and SKW6.4 cells = assay: Apoptosis of lymphoid cells stimulated with anti-CD95 or STS (FACS scatter); format: cell-based; details: anti-CD95 or STS 24 hours, GFP positive cells
Experimental: In addition, BJAB and SKW6.4 cells were co-transfected (1:3 ratio) with a vector encoding GFP and either an empty vector control or a vector encoding Bcl2L12-V5. After 24 hours, the transfected cells were stimulated with anti-CD95 or STS for 24 hours at different concentrations. The cells were analyzed by FACS. A gate was set only on GFP positive cells. Apoptosis was defined as an increase in sideward scatter and a decrease in forward scatter. SKW6.4 cells are type I B cells, while BJAB cells are type II B cells.

[5] = tested on: p53 mediated transcription; assay: p53 luciferase reporter (PG13) in Ink4a/Arf deficient astrocytes; format: cell-based; details: normalized to βGal, vs vector control
Description: Activation of the p53 transcription factor in response to a variety of cellular stresses, including DNA damage and oncogene activation, initiates a program of gene expression that blocks the proliferative expansion of damaged cells. To asses the effect of Bcl2L12 polypeptides on p53 mediated transcription, Ink4a/Arf deficient astrocytes ectopically expressing a Bcl2L12-V5 polypeptide were transfected with increasing amounts of nucleic acid encoding a p53 polypeptide and a luciferase construct bearing a dimerized p53 binding site in its promoter (PG13).

[6] = tested on: Ink4a/Arf deficient astrocytes; assay: Cell growth of transfected Ink4a/Arf deficient astrocytes over six days; format: cell-based, mouse; details: LacZ about 1.5×10^6 cells
Experimental: (§1) Ink4a/Arf deficient astrocytes transfected with a vector encoding either LacZ, Bcl2L12-V5, or EGFR* polypeptides were cultured for six days. Each day, the number of cells in each culture was determined. In addition, stably transfected cells were harvested and assessed for the phosphorylation of Erk1/2 (p44/p42).

Erk1 and Erk2 = assay: Phosphorylation of Erk1/2 (p44/p42) in transfected astrocytes; format: cell-based; details: vs control cells expressing LacZ
Experimental: as §1

B1: Bcl2L12-V5: Bcl2L12 polypeptide having the V5 epitope tag, ectopically expressed from pBabe-Bcl2L12-V5 vector; human amino acid sequence 1-334 (protein)
chain: MGRPAGLFPPLCPFLGFRPEACWERHMQIERAPSVPPFLRWAGYRPGPVRRRGKVELIKFVRVQWRRPQVEWRRRRWGPGPGASMAGSEELGLREDTLRVLAAFLRRGEAAGSPVPTPPRSPAQEEPTDFLSRLRRCLPCSLGRGAAPSESPRPCSLPIRPCYGLEPGPATPDFYALVAQRLEQLVQEQLKSPPSPELQGPPSTEKEAILRRLVALLEEEAEVINQKLASDPALRSKLVRLSSDSFARLVELFCSRDDSSRPSRACPGPPPPSPEPLARLALAMELSRRVAGLGGTLAGLSVEHVHSFTPWIQAHGGWEGILAVSPVDLNLPLD
modifications: left off: small tags and cut ends
In the case of B1, the “resistance to growth inhibition by low serum culture” value ([1]; 0.1% FBS, three days, vs pBabe) is reported as “significantly resistant to growth inhibition”, the “growth / proliferation under normal growth conditions” value ([1]; over-expression, 10% FBS, vs vector only) is reported as “significant increase in growth” and the number of colonies [2] is reported as “about 27 colonies”. The “maturation of effector caspases” value (caspases 3 and 7) was “significant reduction of the maturation of effector caspases 3 and 7”, the “SYTOX Green positivity” value (astrocytes [3]) was “significantly increased” and the “caspase-9 activity (LEHDase)” value (astrocytes [3]) was “dramatically reduced”. For the same molecule, the “dissipated mitochondrial membrane potential” value (astrocytes [4]) was “marked increase in the dissipated membrane potential”, the apoptosis (BJAB and SKW6.4 cells) was “promoted apoptosis” and the “transcriptional activity of p53 (reporter activity)” value [5] was “marked decrease of transcriptional activity”. The “cell number on day 6” value [6] was “about 3.8×10^6 cells” and the “levels of Erk1 and Erk2 phosphorylation” value (Erk1 and Erk2) was “higher”.
